Reference: patent publication US12072338B2, “Pharmaceutical peptides for the treatment of inflammatory diseases” (PROTAGONISTS LTD., priority 2007, dated 2024)
“Also recorded” adds a separate entry of the source. Like-named read-outs stand apart in the source and are kept apart here. Ends that are not written are not given here.

Assays:
Exodus-2 = biological target: T1, Exodus-2 (Homo sapiens, UniProt O00585); assay: Micro-array analysis of chemokine binding peptides: Exodus-2
T1 construct: purchased 300-35
T1 sequence (O00585 24-134): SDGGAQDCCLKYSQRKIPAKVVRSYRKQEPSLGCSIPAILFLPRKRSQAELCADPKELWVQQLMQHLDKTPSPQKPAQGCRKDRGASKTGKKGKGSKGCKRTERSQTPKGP
In short: (§1)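 Chemokines were printed at 25 and 50 μg/ml (final, in print reagent) on protein microarray slides, blocked, then exposed to recombinant peptide-displaying phage at 10^7 pfu/μl for 1 h at RT. Bound phage was detected with mouse anti-M13 mAb and Cy3 goat anti-mouse IgG; values are relative Cy3 fluorescence.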

Eotaxin = biological target: T2, Eotaxin (Homo sapiens, UniProt P51671); assay: Micro-array analysis of chemokine binding peptides: Eotaxin; conditions: limit = start of the upper 75% of that peptide's response range
T2 construct: purchased 300-21
T2 sequence (P51671 24-97): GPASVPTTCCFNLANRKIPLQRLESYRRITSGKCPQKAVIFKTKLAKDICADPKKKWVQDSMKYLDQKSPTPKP
In short: as §1

Mig = biological target: T3, Mig (Homo sapiens, UniProt Q07325); assay: Micro-array analysis of chemokine binding peptides: Mig; conditions: limit = start of the upper 75% of that peptide's response range
T3 construct: purchased 300-26
T3 sequence (Q07325 23-125): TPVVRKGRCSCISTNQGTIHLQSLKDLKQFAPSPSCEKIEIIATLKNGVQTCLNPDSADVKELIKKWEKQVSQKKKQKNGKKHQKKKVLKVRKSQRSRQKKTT
In short: as §1

SDF1-α = biological target: T4, SDF1-α (Homo sapiens, UniProt P48061); assay: Micro-array analysis of chemokine binding peptides: SDF1-α
T4 construct: purchased 300-28a
T4 sequence (P48061 22-89 limits assumed): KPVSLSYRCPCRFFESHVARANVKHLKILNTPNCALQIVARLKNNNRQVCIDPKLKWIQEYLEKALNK
In short: as §1

MCP-4 = biological target: T5, MCP-4 (Homo sapiens, UniProt Q99616); assay: Micro-array analysis of chemokine binding peptides: MCP-4; conditions: limit = start of the upper 75% of that peptide's response range
T5 construct: purchased 300-24
T5 sequence (Q99616 17-98): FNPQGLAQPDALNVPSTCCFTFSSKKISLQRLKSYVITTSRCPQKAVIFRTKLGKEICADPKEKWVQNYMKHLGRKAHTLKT
In short: as §1

I-309 = biological target: T6, I-309 (Homo sapiens, UniProt P22362); assay: Micro-array analysis of chemokine binding peptides: I-309; conditions: limit = start of the upper 75% of that peptide's response range
T6 construct: purchased 300-37
T6 sequence (P22362 24-96): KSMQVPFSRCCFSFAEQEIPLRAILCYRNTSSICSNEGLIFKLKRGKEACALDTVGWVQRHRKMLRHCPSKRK
In short: as §1

RANTES = biological target: T7, RANTES (Homo sapiens, UniProt P13501); assay: Micro-array analysis of chemokine binding peptides: RANTES
T7 construct: purchased 300-06
T7 sequence (P13501 24-91): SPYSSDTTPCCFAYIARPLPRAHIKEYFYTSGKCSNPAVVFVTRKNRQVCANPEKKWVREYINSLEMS
In short: as §1

SDF1-β = biological target: T8, SDF1-β (Homo sapiens, UniProt P48061); assay: Micro-array analysis of chemokine binding peptides: SDF1-β
T8 construct: purchased 300-28b
T8 sequence (P48061 22-93): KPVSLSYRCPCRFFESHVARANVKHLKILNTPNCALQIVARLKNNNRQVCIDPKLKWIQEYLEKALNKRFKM
In short: as §1

SDF1 = assay: Micro-array analysis of chemokine binding peptides: SDF1 (isoform not given)
Sequence of SDF1 (P48061 22-89 limits assumed): as the sequence (P48061 22-89 limits assumed) above
Method: (§2) (1) Printing: Chemokine (CK) solution (in water) was serially diluted with Print Reagent (GenTel BioSurfaces USA) to final concentrations of 50 μg and 25 μg/ml. BSA/BSA-Biotin control solutions (in water) were diluted with Print Reagent to 100 μg/ml. Amplified stock of M13 phage control (M13KEgIII Cloning Vector, New England Biolabs, Cat.No.E8101S) was stored in Tris Buffered Saline (TBS; pH7.5, 4° C.) and diluted with Print Reagent to the working titre (10^8 pfu/μl). An automated spotting robot (16 pin print tool, 0.4 mm head; BioRobotics, UK) was used to print the CK/BSA control/M13 control, 5 repeats per sample (CK 25 μg/ml and 50 μg/ml; BSA 100 μg/ml; M13 20 μl), on PATH Protein Microarray Slides (GenTel, Prod.No. 2-1005/-1025) at […], and 50-70% relative humidity. Printed micro-array slides were stored at Room Temperature (RT) or 4° C. for at least 24 h before use.
(2) Blocking: Block Buffer (500 μl/partition; PATHblock, GenTel, Prod.No. 2-1014) was applied to the slide for 1 hour at room temp (RT). After removal of Block Buffer, the slide was air dried for 25 minutes;
(3) Phage Presented Peptide Binding: Amplified recombinant phage stock was stored in TBS and diluted with Wash Buffer to working titer (10^7 pfu/μl). Recombinant phage suspension (300 μl) was applied per partition and incubated at RT for 1 hour with gentle agitation.
(4) First Washing: The slides were washed twice with Wash Buffer 300 μl/partition).
(5) Primary Antibody (Ab) Labeling: The slides were incubated with the Primary Ab (1 mg/ml diluted ×2500 (Wash Reagent), 300 μl; Mouse Anti-M13 monoclonal Ab; Amersham Biosciences, UK; Product Code 27-9420-01) for 45 minutes at RT.
(6) Second Washing: The slides were washed twice with Wash Buffer (300 μl/partition).
(7) Secondary Ab Labeling: The slides were incubated with Secondary Ab (1.5 mg/ml diluted ×5000 (Wash Reagent), 300 μl; Cy3-conjugated AffiniPure Goat Anti-Mouse IgG; Jackson ImmunoReserch Labs, USA; Product Code 115-165-062).
(8) Third Washing: The slides were washed twice with Wash Buffer (300 μl/partition).
(9) Rinse: the slides were rinsed twice with Rinse Buffer (PATHrinse, GenTel, Prod.No. 2-1018) then dried well.
(10) Scanning: The peptide-bound, labeled slide was scanned (Laser Intensity 80%, Gain 80%, Resolution 10 μm) with a ScanArray Life Scanner (Packard BioChip Technologies, USA).
(§3) (11) Analysis: Quantitative analysis of micro-array was performed by the SpotReader program of Niles Scientific (USA) and presented as Relative Fluorescence (RF) as a function of CK concentration. Micro-array readout (Cy3 fluorescence) was quantified to determine the relative binding affinities of a CBP for the CKs and by inference, the specificity of the CBP for binding to a CK.

MIP3-α = biological target: T9, MIP3-α (Homo sapiens, UniProt P78556); assay: Micro-array analysis of chemokine binding peptides: MIP3-α
T9 construct: purchased 300-29A
T9 sequence (P78556 27-96): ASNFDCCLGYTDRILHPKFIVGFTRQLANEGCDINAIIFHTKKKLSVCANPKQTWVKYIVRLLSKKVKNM
Method: as §2, with “use. […]” for “use.”
as §3

IL-8 = assay: Micro-array analysis of chemokine binding peptides: IL-8; conditions: limit = start of the upper 75% of that peptide's response range
Sequence of IL-8 (P10145 28-99 limits assumed): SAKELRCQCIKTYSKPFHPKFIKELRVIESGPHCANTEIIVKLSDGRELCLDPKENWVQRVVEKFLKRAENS
In short: as §1

Eotaxin 3 = biological target: T10, Eotaxin 3 (Homo sapiens, UniProt Q9Y258); assay: Micro-array analysis of chemokine binding peptides: Eotaxin 3; conditions: limit = start of the upper 75% of that peptide's response range
T10 construct: purchased 300-48
T10 sequence (Q9Y258 24-94): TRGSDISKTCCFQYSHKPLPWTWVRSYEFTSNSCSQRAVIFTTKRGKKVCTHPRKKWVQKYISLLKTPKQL
In short: as §1

Fractalkine = biological target: T11, Fractalkine (Homo sapiens, UniProt P78423); assay: Micro-array analysis of chemokine binding peptides: Fractalkine
T11 construct: purchased 300-31
T11 sequence (P78423 25-100 limits assumed): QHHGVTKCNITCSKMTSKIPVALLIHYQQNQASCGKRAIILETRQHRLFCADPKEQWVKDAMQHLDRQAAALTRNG
In short: as §1

MCP-1 = biological target: T12, MCP-1 (Homo sapiens, UniProt P13500); assay: Micro-array analysis of chemokine binding peptides: MCP-1; conditions: limit = start of the upper 75% of that peptide's response range
T12 construct: purchased 300-04
T12 sequence (P13500 24-99): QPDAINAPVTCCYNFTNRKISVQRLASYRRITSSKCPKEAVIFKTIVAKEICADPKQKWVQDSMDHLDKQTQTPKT
In short: as §1

TECK = biological target: T13, TECK (Homo sapiens, UniProt O15444); assay: Micro-array analysis of chemokine binding peptides: TECK
T13 construct: purchased 300-45
T13 sequence (O15444 24-150): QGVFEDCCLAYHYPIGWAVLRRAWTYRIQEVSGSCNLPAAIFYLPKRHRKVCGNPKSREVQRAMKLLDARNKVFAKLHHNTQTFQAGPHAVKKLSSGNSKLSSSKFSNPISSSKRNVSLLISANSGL
In short: as §1

[1] = test system: healthy, non-disease-induced rats; assay: Effect on healthy, non-disease-induced rats; type: in vivo, rat; conditions: 30 ug/injection IP on 12 consecutive days
Method: P15 was injected IP (30 ug/injection) on 12 consecutive days to determine if this anti-inflammatory peptide had any effect at a therapeutic dose on healthy, non-disease-induced rats.

Substance | binding to Exodus-2, stated in words (Exodus-2) | binding to Eotaxin with relatively high affinity (Relative Fluorescence Units) (Eotaxin) | binding to Mig with relatively high affinity (Relative Fluorescence Units) (Mig) | binding to SDF1-α, stated in words (SDF1-α) | binding to MCP-4 with relatively high affinity (Relative Fluorescence Units) (MCP-4) | binding to I-309 with relatively high affinity (Relative Fluorescence Units) (I-309) | binding to RANTES, stated in words (RANTES) | binding to RANTES with relatively high affinity (Relative Fluorescence Units) (RANTES; limit = start of the upper 75% of that peptide's response range) | binding to SDF1-β, stated in words (SDF1-β) | binding to SDF1 (isoform not given), stated in words (SDF1) | binding to MIP3-α, stated in words (MIP3-α) | binding to IL-8 with relatively high affinity (Relative Fluorescence Units) (IL-8) | binding to Eotaxin 3 with relatively high affinity (Relative Fluorescence Units) (Eotaxin 3) | binding to Fractalkine, stated in words (Fractalkine) | binding to Fractalkine, stated in words (Fractalkine; listed as P5) | binding to MCP-1 with relatively high affinity (Relative Fluorescence Units) (MCP-1) | binding to TECK, stated in words (TECK) | physiological or behavioral effect on healthy rats [1]
LFGNDCE [CBP5] | bound | > 2,500 RFU | > 2,500 RFU | bound | > 2,500 RFU | > 2,500 RFU | bound specifically and differentially | > 2,500 RFU | bound | bound specifically and differentially | bound | > 2,500 RFU | > 2,500 RFU | bound | bound specifically and differentially | > 2,500 RFU | bound | 
WVFGSGLCK [Ph-p15, WVFGSGLCK] |  |  |  |  |  |  |  |  |  |  |  |  |  |  |  |  |  | no apparent effect; also recorded: no obvious physiological or behavioral effect
